Among the data in patent US20230399416A1 (MIRIMGENE, published 2023) are Kd values, retold here.

In test [1] the target is T1, human WARS1 recombinant protein (human, UniProt P23381 1-471, limits assumed).
T1 construct: In the immunoblot the endogenous WARS1 of THP-1 human monocytes was also detected; also called human recombinant protein; tryptophanyl-tRNA synthetase 1, cytoplasmic
T1 sequence (looked up): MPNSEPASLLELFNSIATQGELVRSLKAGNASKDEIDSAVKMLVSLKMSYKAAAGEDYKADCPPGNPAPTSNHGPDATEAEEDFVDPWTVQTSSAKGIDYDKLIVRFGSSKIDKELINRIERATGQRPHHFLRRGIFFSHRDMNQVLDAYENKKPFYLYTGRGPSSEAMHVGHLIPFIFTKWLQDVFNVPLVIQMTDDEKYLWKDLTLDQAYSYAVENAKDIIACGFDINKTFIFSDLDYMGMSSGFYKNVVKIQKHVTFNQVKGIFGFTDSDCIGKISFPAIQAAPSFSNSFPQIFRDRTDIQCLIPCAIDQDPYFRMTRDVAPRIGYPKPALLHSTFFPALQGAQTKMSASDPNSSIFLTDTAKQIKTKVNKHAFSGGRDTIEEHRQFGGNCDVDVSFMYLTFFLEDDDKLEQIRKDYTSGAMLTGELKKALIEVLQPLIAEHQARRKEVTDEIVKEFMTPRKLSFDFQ
As to the kind of experiment: SPR, Biacore T200, CM5 chip, serially diluted GKB101 injected. The protocol:
(§1) 1) SPR: Binding ability was measured using Series S Sensor CM5 Chip (GE Healthcare Life Sciences) and GE Bioacore T200. A HBS-EP buffer (GE Healthcare Life Sciences) was used. After injecting serially diluted GKB101 or buffer for 1-10 minutes at a flow rate of 30 μL/min, the analyte was washed for 20 minutes.
Background: Surface plasmon resonance follows binding to a sensor surface in real time, without labels.

In test [2] the target is T2, mouse WARS1 recombinant protein (mouse, UniProt P32921 1-481, limits assumed).
T2 construct: In the immunoblot the endogenous WARS1 of J774.1A mouse macrophages was also detected; also called mouse recombinant protein
T2 sequence (looked up): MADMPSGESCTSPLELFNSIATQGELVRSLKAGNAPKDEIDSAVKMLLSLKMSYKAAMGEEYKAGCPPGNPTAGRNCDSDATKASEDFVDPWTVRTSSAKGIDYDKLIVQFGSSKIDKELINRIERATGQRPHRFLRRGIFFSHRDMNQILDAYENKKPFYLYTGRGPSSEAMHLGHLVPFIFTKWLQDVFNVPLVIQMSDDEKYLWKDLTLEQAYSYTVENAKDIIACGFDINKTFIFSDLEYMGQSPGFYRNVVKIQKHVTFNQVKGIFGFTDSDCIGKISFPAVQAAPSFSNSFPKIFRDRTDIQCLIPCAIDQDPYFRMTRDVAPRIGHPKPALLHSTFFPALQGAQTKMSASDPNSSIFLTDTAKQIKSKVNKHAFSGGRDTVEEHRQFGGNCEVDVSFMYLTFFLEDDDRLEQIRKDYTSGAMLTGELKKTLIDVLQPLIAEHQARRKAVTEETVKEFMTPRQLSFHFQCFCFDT
The test is described as above. The procedure: as §1

B1: GKB101 (antibody, IgG1, V domains shown)
VH: EVQLLESGGGLVQPGGSLRLSCAASGFTFSSYDMSWVRQAPGKGLEWVSAISSGGSSIYYADSVKGRFTISRDNSKNTLYLQMNSLRAEDTAVYYCARDVAWDMLGDFDYWGQGTLVTVSS
VL: QSVLTQPPSASGTPGQRVTISCTGSSSNIGSNYVYWYQQLPGTAPKLLIYANSHRPSGVPDRFSGSKSGTSASLAISGLRSEDEADYYCGAWDDSLSAYVFGGGTKLTVTV
notes: IgG1 made from the selected scFv with the constant regions of herceptin expression vectors, expressed in Expi293F cells; Joined as printed they may lack a few residues at the junctions (VL/CL, CH2/CH3) and at the C-terminus of CH3; also called WARS1-specific antibody; anti-WARS1 antibody
By Kd is commonly meant a measure of binding affinity in units of concentration. Turning to B1, the values for the equilibrium dissociation constant (Kd) in test [1] and in test [2] were around 0.2 nM and around 3.76 nM, respectively.
